Test results published in article PMC7279889, “FMRP promotes RNA localization to neuronal projections through interactions between its RGG domain and G-quadruplex RNA sequences”.

Experiments:
[1] = biological target: FMRP KH domains (two KH domains) (Mus musculus, UniProt P35922 222-315); assay: fluorescence polarization; binding never detected; method and salt implied; FP: 10 mM Tris-HCl (pH not stated), 150 mM KCl or LiCl, 5% glycerol, 10 nM RNA, protein 2 nM-1 uM, 5 min at 25 C, read at 26-27 C; conditions: protein: recombinant; tags: GST-SBP (N-terminal, pGEX6); label: 3' 6-FAM; G4 intramolecular (folded in KCl)
[2] = biological target: FMRP RGG domain (Mus musculus, UniProt P35922 478-614); assay: fluorescence polarization; 150 mM KCl; FP: 10 mM Tris-HCl (pH not stated), 150 mM KCl or LiCl, 5% glycerol, 10 nM RNA, protein 2 nM-1 uM, 5 min at 25 C, read at 26-27 C; conditions: protein: recombinant; tags: GST-SBP (N-terminal, pGEX6); label: 3' 6-FAM; G4 intramolecular (folded in KCl)

B1: rG4 (structured_RNA)
RNA: GGGAGGGAGGGAGGGUA
binding result [1]: no binding | Kd [2]: ~30 nM
